Measured values: the supplement of paper PMC7877785
± gives the uncertainty stated by the source.

Assay: self-splicing fitness, log relative to wild type (ln ratio); higher = more splicing; Tetrahymena group I intron in knt gene, E. coli kanamycin selection, DiMSum; sequences stand for … in CUCUCU…GGAGGGAAAAGUUAUCAGGCAUGCACCUGGUAGCUAGUCUUUAAACCAAUAGAUUGCAUCGGUUUAAAAGGCAAGACCGUCAAAUUGCGGGAAAGGGGUCAACAGCCGUUCAGUACCAAGUCUCAGGGGAAACUUUGAGAUGGCCUUGCAAAGGGUAUGGUAAUAAGCUGACGGACAUGGUCCUAACCACGCAGCCAAGUCCUAAGUCAACAGAUCUUCUGUUGAUAUGGAUGCAGUUCACAGACUAAAUGUCGGUCGGGGAAGAUGUAUUCUUCUCAUAAGAUAUAGUCGGACCUCUCCUUAAUGGGAGCUAGCGGAUGAAGUGAUGCAACACUGGAGCCGCUGGGAACUAAUUUGUAUGCGAAAGUAUAUUGAUUAGUUUUGGAGUACUCGUGGUCG
Method in brief: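 Fitness was computed with DiMSum as the error-weighted combination of replicate fold changes, kanamycin versus none, each normalised to wild type. The library randomised all eight intron nucleotides of the P1ex region, with the intron placed in the knt kanamycin-resistance gene on pET-22b(+) in E. coli BL21(DE3). Six replicate transformations were grown overnight at 37°C or 30°C on LB agar with or without 25 μg/mL kanamycin, plus 100 μg/mL carbenicillin, 50 μM IPTG and 0.2% rhamnose. Pooled colonies were amplicon-sequenced on an Illumina HiSeq 2500.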

Sequence	self-splicing fitness (ln) (30 °C)	self-splicing fitness (ln) (37 °C)
GAACAGCAAUAUUACGGCCC	-0.734 ± 0.27	-0.265 ± 0.28
GAACAGCAAUAUUACGGCCG	-2.39 ± 0.11	-0.46 ± 0.14
GAACAGCAAUAUUACGGUCA	-0.702 ± 0.062	-1.05 ± 0.066
GAACAGCAAUAUUACGGUUA	-0.16 ± 0.059	-0.275 ± 0.064
GAACAGCAAUAUUACGUACA	-0.915 ± 0.073	-0.72 ± 0.082
GAACAGCAAUAUUACGUCCA	-0.934 ± 0.089	-0.369 ± 0.1
GAACAGCAAUAUUACGUCGA	-0.66 ± 0.066	-0.117 ± 0.076
GAACAGCAAUAUUACGUCUC	-2.17 ± 0.17	-0.443 ± 0.16
GAACAGCAAUAUUACGUGAG	-0.394 ± 0.031	-0.235 ± 0.053
GAACAGCAAUAUUACGUGUC	-3.49 ± 0.14	-3.22 ± 0.17
GAACAGCAAUAUUACGUUAA	-0.997 ± 0.068	-0.105 ± 0.08
GAACAGCAAUAUUACGUUUU	-3.06 ± 0.083	-2.25 ± 0.11
GAAGAGCAAUAUUACGACCG	-2.29 ± 0.36	–
GAAGAGCAAUAUUACGAGAG	-2.3 ± 0.12	-3.22 ± 0.27
GAAGAGCAAUAUUACGAGAU	-3.35 ± 0.23	-2.08 ± 0.19
GAAGAGCAAUAUUACGAUUC	-3.57 ± 0.26	-2.45 ± 0.28
GAAGAGCAAUAUUACGCACG	-2.22 ± 0.1	-1.71 ± 0.16
GAAGAGCAAUAUUACGCCGG	-2.66 ± 0.18	-2.5 ± 0.29
GAAGAGCAAUAUUACGCGGC	-2.37 ± 0.27	-1.8 ± 0.33
GAAGAGCAAUAUUACGCUAA	–	-2.22 ± 0.3
GAAGAGCAAUAUUACGGACU	-2.93 ± 0.22	-1.14 ± 0.13
GAAGAGCAAUAUUACGGAUA	-2.15 ± 0.22	-2.85 ± 0.43
GAAGAGCAAUAUUACGGAUG	-3.4 ± 0.45	-1.09 ± 0.31
GAAGAGCAAUAUUACGGCGU	-1.48 ± 0.1	-0.224 ± 0.12
GAAGAGCAAUAUUACGGGCA	-1.96 ± 0.16	-1.23 ± 0.14

Sequence	self-splicing fitness (ln) (30 °C)	self-splicing fitness (ln) (37 °C)
GAAGAGCAAUAUUACGGGCC	-2.16 ± 0.29	–
GAAGAGCAAUAUUACGGGGA	-2.93 ± 0.43	-0.71 ± 0.31
GAAGAGCAAUAUUACGGUAC	-3.39 ± 0.31	-1.69 ± 0.32
GAAGAGCAAUAUUACGGUGG	-4.19 ± 0.33	-3.17 ± 0.32
GAAGAGCAAUAUUACGUACC	-1.6 ± 0.2	-1.49 ± 0.19
GAAGAGCAAUAUUACGUAUG	-3.52 ± 0.23	-2.16 ± 0.17
GAAGAGCAAUAUUACGUGUA	-2.66 ± 0.2	-2.76 ± 0.19
GAAGAGCAAUAUUACGUGUG	-3.15 ± 0.22	-2.67 ± 0.18
GAAGAGCAAUAUUACGUUAU	-3.85 ± 0.25	-1.47 ± 0.2
GAAGAGCAAUAUUACGUUCG	-1.52 ± 0.11	-0.987 ± 0.14
GAAUAGCAAUAUUACGAACC	0.0666 ± 0.21	0.816 ± 0.24
GAAUAGCAAUAUUACGAAUU	-1.78 ± 0.084	-0.497 ± 0.1
GAAUAGCAAUAUUACGACAA	-0.386 ± 0.13	-0.329 ± 0.13
GAAUAGCAAUAUUACGACAG	-3.2 ± 0.28	-2.62 ± 0.35
GAAUAGCAAUAUUACGAGAA	-2.39 ± 0.46	-1.6 ± 0.38
GAAUAGCAAUAUUACGAUGG	-2.74 ± 0.14	-0.977 ± 0.12
GAAUAGCAAUAUUACGAUUU	-1.74 ± 0.12	-0.649 ± 0.11
GAAUAGCAAUAUUACGCACC	-1.19 ± 0.23	0.185 ± 0.32
GAAUAGCAAUAUUACGCGAA	-3.09 ± 0.21	-1.96 ± 0.2
GAAUAGCAAUAUUACGCGUA	-2.17 ± 0.16	-0.973 ± 0.13
GAAUAGCAAUAUUACGCUAC	-1.75 ± 0.48	–
GAAUAGCAAUAUUACGGAUG	-2.29 ± 0.099	-2.01 ± 0.12
GAAUAGCAAUAUUACGGCCC	-0.303 ± 0.14	0.174 ± 0.21
GAAUAGCAAUAUUACGGGAC	-3.37 ± 0.31	-2.53 ± 0.3
